Where no end group is shown, it is not given here.
Tests used:
[1] = target: T1, PSMA Fab (SEQ ID NOs: 19, 20); assay: clonal phage ELISA; biotinylated PSMA Fab captured on neutravidin plate, bound phage detected with anti-M13-HRP
T1 construct: also called Anti-PSMA Fab; 006 PSMA Fab
Protocol: (§1) Clonal phage were harvested as crude supernatants and screened via standard ELISAs. […] Prior to the addition of clonal phage. wells were incubated with blocking buffer and PSMA antigen or blocking buffer alone. Without washing or aspirating, clonal phage supernatants were then added to the wells and incubated for a short time. Wells were then washed followed by detection of bound phage using a horse radish conjugated anti-M13 antibody.

[2] = target: T1, PSMA Fab (SEQ ID NOs: 19, 20); assay: clonal phage ELISA; captured biotinylated PSMA Fab pre-incubated with PSMA antigen as competitor, anti-M13-HRP detection
Protocol: as §1

[3] = target: T2, PSMA Fab (006 PSMA Fab); assay: clonal phage ELISA on biotinylated PSMA Fab captured on neutravidin plates, anti-M13-HRP detection;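 note: crude clonal phage supernatants added to wells preincubated with PSMA antigen or with blocking buffer only (no wash between), briefly incubated, then washed before detecting bound phage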
T2 construct: also called Anti-PSMA Fab
Protocol: as §1

[4] = target: T2, PSMA Fab (006 PSMA Fab); assay: clonal phage ELISA on captured PSMA Fab pre-incubated with PSMA antigen as competitor, anti-M13-HRP detection;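 note: wells blocked with buffer plus PSMA antigen before phage addition, with blocking buffer alone as the no-competitor control, bound phage detected after washing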
Protocol: as §1

[5] = target: T3, PSMA Fab (006 PSMA Fab) (biotinylated (site not stated)); assay: clonal phage ELISA on plate-captured biotinylated PSMA Fab, blocking buffer alone, anti-M13 HRP detection
T3 construct: also called Anti-PSMA Fab

[6] = target: T3, PSMA Fab (006 PSMA Fab); assay: clonal phage ELISA on plate-captured biotinylated PSMA Fab pre-incubated with PSMA antigen as competitor, anti-M13 HRP detection
Protocol: as §1

[7] = target: T4, Anti-PSMA Fab; assay: clonal phage ELISA on biotinylated PSMA Fab captured on neutravidin plates, anti-M13-HRP detection;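 note: crude clonal phage supernatants added to wells preincubated with PSMA antigen or with blocking buffer only (no wash between), briefly incubated, then washed before detecting bound phage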
T4 construct: also called 006 PSMA Fab
Protocol: as §1

[8] = target: T4, Anti-PSMA Fab; assay: clonal phage ELISA on captured PSMA Fab, wells pre-incubated with PSMA antigen as competitor, anti-M13-HRP detection;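 note: crude clonal phage supernatants added without washing after the PSMA preincubation, comparison wells received blocking buffer alone without PSMA, bound phage read after washing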
Protocol: as §1

Row | Binder | Phage binding ELISA signal, Anti-PSMA Fab [1] | Phage binding ELISA signal, Anti-PSMA Fab with PSMA antigen [2] | Phage binding ELISA signal, Anti-PSMA Fab [3] | Phage binding ELISA signal, Anti-PSMA Fab with PSMA antigen [4] | further results
1 | DARLCKPTWMCMGL (Tested as clonal phage supernatant; not shown: pIII coat protein of the bacteriophage to which the peptide is fused) [Phage-3809 (Peptide-180 library clone, SEQ ID NO: 4125)] | 1.29 | 0.0886 | – | – | –
2 | VVSHCKPIWMCSGF (Tested as clonal phage supernatant; not shown: pIII coat protein of the bacteriophage to which the peptide is fused) [Phage-3807 (Peptide-180 library clone, SEQ ID NO: 4123)] | 1.29 | 0.083 | – | – | –
3 | ATVVCSPPWMCTGF [Phage-3817] | – | – | 1.27 | 0.0662 | –
4 | DPVWCIPQWMCEGF [Phage-3837] | – | – | – | – | Phage binding ELISA signal, Anti-PSMA Fab [5]: 1.23; Phage binding ELISA signal, Anti-PSMA Fab in presence of PSMA [6]: 0.0652
5 | LLERCVPSWMCLGF [Phage-3820] | – | – | 1.26 | 0.102 | –
6 | LGVQCKPTWMCQGF (Tested as clonal phage supernatant; not shown: pIII coat protein of the bacteriophage to which the peptide is fused) [Phage-3808 (Peptide-180 library clone, SEQ ID NO: 4124)] | 1.29 | 0.0911 | – | – | –
7 | SDYMCRPSWMCEGL [Phage-3838] | – | – | – | – | Phage binding ELISA signal, Anti-PSMA Fab [5]: 1.23; Phage binding ELISA signal, Anti-PSMA Fab in presence of PSMA [6]: 0.0632
8 | ENAKCSPAWMCVGF [Phage-3818] | – | – | 1.27 | 0.0752 | –
9 | LELLCRPSWMCEGF (cysteine pairing not given here; also: displayed on phage as fusion to pIII, junction not given here, Tested as clonal phage supernatant; not shown: pIII coat protein of the bacteriophage to which the peptide is fused) [Phage-3800 (Peptide-180 library clone, SEQ ID NO: 4116)] | 1.3 | 0.0665 | – | – | –
10 | VQHWCVPAWMCYGL [Phage-3826] | – | – | 1.24 | 0.107 | –
11 | EVLRCVPRWMCEKF (Tested as clonal phage supernatant; not shown: pIII coat protein of the bacteriophage to which the peptide is fused) [Phage-3802 (Peptide-180 library clone, SEQ ID NO: 4118)] | 1.3 | 0.0658 | – | – | –
12 | VDRVCIPTWMCEGI [Phage-3834] | – | – | – | – | Phage binding ELISA signal, Anti-PSMA Fab [5]: 1.23; Phage binding ELISA signal, Anti-PSMA Fab in presence of PSMA [6]: 0.0575
13 | VLHKCLPTWMCNGF [Phage-3836] | – | – | – | – | Phage binding ELISA signal, Anti-PSMA Fab [5]: 1.23; Phage binding ELISA signal, Anti-PSMA Fab in presence of PSMA [6]: 0.0967
14 | DQAACVPAWMCTGF (Tested as clonal phage supernatant; not shown: pIII coat protein of the bacteriophage to which the peptide is fused) [Phage-3806 (Peptide-180 library clone, SEQ ID NO: 4122)] | 1.3 | 0.117 | – | – | –
15 | TSVLCQPLWMCSGF [Phage-3832] | – | – | – | – | Phage binding ELISA signal, Anti-PSMA Fab [5]: 1.24; Phage binding ELISA signal, Anti-PSMA Fab in presence of PSMA [6]: 0.0785
16 | GDQMCIPLWMCEGF (Tested as clonal phage supernatant; not shown: pIII coat protein of the bacteriophage to which the peptide is fused) [Phage-3810 (Peptide-180 library clone, SEQ ID NO: 4126)] | 1.29 | 0.106 | – | – | –
17 | SFQRCEPEWMCYGF (Tested as clonal phage supernatant; not shown: pIII coat protein of the bacteriophage to which the peptide is fused) [Phage-3811 (Peptide-180 library clone, SEQ ID NO: 4127)] | 1.29 | 0.0768 | – | – | –
18 | GGPMCKPVWMCQGF (Tested as clonal phage supernatant; not shown: pIII coat protein of the bacteriophage to which the peptide is fused) [Phage-3803 (Peptide-180 library clone, SEQ ID NO: 4119)] | 1.3 | 0.0735 | – | – | –
19 | LELACRPMWMCQGF (Clone of the Peptide-180 optimisation library, tested as clonal phage supernatant) [Phage-3799] | – | – | – | – | Phage binding ELISA signal, Anti-PSMA Fab [7]: 1.31; Phage binding ELISA signal, Anti-PSMA Fab with PSMA antigen [8]: 0.0709
20 | HMIHCVPDWMCEGF (Tested as clonal phage supernatant; not shown: pIII coat protein of the bacteriophage to which the peptide is fused) [Phage-3805 (Peptide-180 library clone, SEQ ID NO: 4121)] | 1.3 | 0.0847 | – | – | –

Row | Binder | Phage binding ELISA signal, Anti-PSMA Fab [1] | Phage binding ELISA signal, Anti-PSMA Fab with PSMA antigen [2] | Phage binding ELISA signal, Anti-PSMA Fab [3] | Phage binding ELISA signal, Anti-PSMA Fab with PSMA antigen [4] | further results
21 | YTAMCVPVWMCNVL (cysteine pairing not given here; also: displayed on phage as fusion to pIII, junction not given here, Tested as clonal phage supernatant; not shown: pIII coat protein of the bacteriophage to which the peptide is fused) [Phage-3813 (Peptide-180 library clone, SEQ ID NO: 4129)] | 1.29 | 0.0695 | – | – | –
22 | PEIRCAPLWMCVGF [Phage-3829] | – | – | – | – | Phage binding ELISA signal, Anti-PSMA Fab [5]: 1.24; Phage binding ELISA signal, Anti-PSMA Fab in presence of PSMA [6]: 0.0725
23 | AYPMCSPAWMCAGF (cysteine pairing not given here; also: displayed on phage as fusion to pIII, junction not given here, Tested as clonal phage supernatant; not shown: pIII coat protein of the bacteriophage to which the peptide is fused) [Phage-3812 (Peptide-180 library clone, SEQ ID NO: 4128)] | 1.29 | 0.0779 | – | – | –
24 | VGIRCEPAWMCEGF [Phage-3833] | – | – | – | – | Phage binding ELISA signal, Anti-PSMA Fab [5]: 1.24; Phage binding ELISA signal, Anti-PSMA Fab in presence of PSMA [6]: 0.0645
25 | EWLVCKPAWMCLGL (Tested as clonal phage supernatant; not shown: pIII coat protein of the bacteriophage to which the peptide is fused) [Phage-3801 (Peptide-180 library clone, SEQ ID NO: 4117)] | 1.3 | 0.0609 | – | – | –
26 | GMKTCVPAWMCVGF [Phage-3831] | – | – | – | – | Phage binding ELISA signal, Anti-PSMA Fab [5]: 1.24; Phage binding ELISA signal, Anti-PSMA Fab in presence of PSMA [6]: 0.08
27 | PQIWCVPTWMCAAS (cysteine pairing not given here; also: displayed on phage as fusion to pIII, junction not given here) [Phage-3821] | – | – | 1.26 | 0.0743 | –
28 | EFKWCVPDWMCYGV (cysteine pairing not given here; also: displayed on phage as fusion to pIII, junction not given here) [Phage-3814] | – | – | 1.29 | 0.0589 | –
29 | PPRACVPSWMCTGF [Phage-3830] | – | – | – | – | Phage binding ELISA signal, Anti-PSMA Fab [5]: 1.24; Phage binding ELISA signal, Anti-PSMA Fab in presence of PSMA [6]: 0.0854
30 | EAPYCRPSWMCAGF (cysteine pairing not given here; also: displayed on phage as fusion to pIII, junction not given here) [Phage-3824] | – | – | 1.25 | 0.0837 | –
31 | ASISCIPDWMCHGF [Phage-3815] | – | – | 1.28 | 0.0872 | –
32 | FWQRCVPTWMCEGF [Phage-3835] | – | – | – | – | Phage binding ELISA signal, Anti-PSMA Fab [5]: 1.23; Phage binding ELISA signal, Anti-PSMA Fab in presence of PSMA [6]: 0.148
33 | LDLSCVPAWMCTGF [Phage-3816] | – | – | 1.28 | 0.0963 | –
34 | VDRMCVPPWMCDVL [Phage-3827] | – | – | 1.24 | 0.0859 | –
35 | IRALCEPSWMCTGF (Tested as clonal phage supernatant; not shown: pIII coat protein of the bacteriophage to which the peptide is fused) [Phage-3804 (Peptide-180 library clone, SEQ ID NO: 4120)] | 1.3 | 0.0766 | – | – | –
36 | QVKYCEPQWMCAGL (cysteine pairing not given here; also: displayed on phage as fusion to pIII, junction not given here) [Phage-3823] | – | – | 1.25 | 0.0788 | –
37 | VHIMCVPPWMCERF [Phage-3819] | – | – | 1.27 | 0.0664 | –
38 | PGMVCKPSWMCSHL [Phage-3825] | – | – | 1.25 | 0.107 | –
39 | IDRHCIPAWMCEQF [Phage-3828] | – | – | – | – | Phage binding ELISA signal, Anti-PSMA Fab [5]: 1.24; Phage binding ELISA signal, Anti-PSMA Fab in presence of PSMA [6]: 0.0571
40 | QEPVCRPAWMCSGF [Phage-3822] | – | – | 1.26 | 0.0764 | –
